Laboratory results taken from US20190016825A1 (JIANGSU HENGRUI MEDICINE, published 2019).

Experiments:
PCSK9-D374Y-BP15-His6 = target: T1, PCSK9-D374Y-BP15-His6 (human, UniProt Q8NBP7 31-692, biotin on the BP15 biotin receiving peptide); experiment: ELISA, bio-PCSK9-Y captured on streptavidin plate
T1 construct: also called PCSK9-Y; mutant PCSK9
Description: The binding ability of anti-PCSK9 antibodies of the present invention to PCSK9-Y was detected by measuring the amount of antibodies binding to PCSK9-Y (mutant PCSK9, SEQ ID NO: 6) fixed on the ELISA plate.
Streptavidin (sigma, CAT#54762) was diluted to 2 μg/ml with PBS and coated into 96-well ELISA plate at 4° C. overnight. The plate was washed and then blocked with Tris buffer (including 0.9 mM CaCl₂, 0.05% Tween 20 and 5% skim milk) at 37° C. for 2 hours. Then the plate was washed again and 100 μl/well of the biotin-labeled PCSK9-Y, produced in-house, (bio-PCSK9-Y, diluted with Tris buffer containing 0.9 mM CaCl₂, 0.05% Tween 20 and 1% skim milk) was added and incubated at 37° C. for 1 hour. After the wash step, different concentrations of diluted PCSK9 antibody samples were added to the plate and incubated at 37° C. for 1 hour. Then the plate was washed again and HRP-goat-anti-human (H+L) antibody (Jackson ImmunoResearch, CAT#109-035-088) was added and incubated at 37° C. for 1 hour. Then the plate was washed again and tetramethylbenzidine solution was added for development. Finally, the stop solution was added and the OD450 value was measured on the Microplate reader, and then EC50 was calculated.
The results of ELISA test for the binding ability of chimeric antibodies and back-mutated antibodies of the present invention to mutant PCSK9 are shown in table 6.

PCSK9-BP15-His6 = target: T2, PCSK9-BP15-His6 (human, UniProt Q8NBP7 31-692, biotin on the BP15 biotin receiving peptide); experiment: ELISA, bio-WT-PCSK9 captured on streptavidin plate
T2 construct: It holds a signal peptide (underlined in print); also called WT PCSK9; bio-WT-PCSK9
Description: The binding ability of anti-PCSK9 antibodies of the present invention to PCSK9 was detected by measuring the amount of antibodies binding to wild-type PCSK9 protein (WT PCSK9, SEQ ID NO: 5) fixed on the ELISA plate.
Streptavidin (sigma, CAT#S4762) was diluted to 2 μg/ml with PBS and coated into 96-well ELISA plate, at 4° C. overnight. The plate was washed and then blocked with Tris buffer (including 0.9 mM CaCl2, 0.05% Tween 20 and 5% skim milk) at 37° C. for 2 hours. Then the plate was washed again and 100 μl/well of the biotin-labeled PCSK9, produced in-house, (bio-WT-PCSK9, diluted with Tris buffer containing 0.9 mM CaCl2, 0.05% Tween 20 and 1% skim milk), was added and incubated at 37° C. for 1 hour. After the wash step, different concentrations of diluted PCSK9 antibody samples was added to the plate and incubated at 37° C. for 1 hour. Then the plate was washed again and HRP-goat-anti-human (H+L) antibody (Jackson ImmunoResearch, CAT#109-035-088) was added and incubated at 37° C. for 1 hour. Then the plate was washed again and tetramethylbenzidine solution was added for development. Finally, the stop solution was added and the OD450 value was measured on the Microplate reader, and then EC50 was calculated.

Binder | EC50 (PCSK9-D374Y-BP15-His6) | EC50 (PCSK9-BP15-His6)
h001-14 (antibody, human IgG1, V domains shown, Variable regions only; also called h001_VH.1C + h001_VL.1A) VH: QVQLVQSGAEVKKPGASVKVSCKASGYTFNDYWMHWVRQAPGQGLEWMGYINPSSGFTKYHQNFKDRVTMTRDTSISTAYMELSRLTSDDTAVYYCARQYDYDEDWYFDVWGQGTTVTVSS VL: DIQMTQSPSSLSASVGDRVTITCKSSQSLLNSRTRKNFLAWYQQKPGKAPKLLIYWASTRESGVPDRFSGSGSGTDFTLTISSLQPEDFATYYCKQSFNLFTFGQGTKLEIK | 0.0112 µg/mL | 0.0084 µg/mL
h001-16 (antibody, human IgG1, V domains shown, Variable regions only; also called h001_VH.1C + h001_VL.1C) VH: QVQLVQSGAEVKKPGASVKVSCKASGYTFNDYWMHWVRQAPGQGLEWMGYINPSSGFTKYHQNFKDRVTMTRDTSISTAYMELSRLTSDDTAVYYCARQYDYDEDWYFDVWGQGTTVTVSS VL: DIVMSQSPSSLSASVGDRVTITCKSSQSLLNSRTRKNFLAWYQQKPGKSPKLLIYWASTRESGVPDRFSGSGSGTDFTLTISSLQPEDFATYYCKQSFNLFTFGQGTKLEIK | 0.0111 µg/mL | 0.0082 µg/mL
h001-13 (antibody, human IgG1, V domains shown, Variable regions only; also called h001_VH.1C + h001_VL.1) VH: QVQLVQSGAEVKKPGASVKVSCKASGYTFNDYWMHWVRQAPGQGLEWMGYINPSSGFTKYHQNFKDRVTMTRDTSISTAYMELSRLTSDDTAVYYCARQYDYDEDWYFDVWGQGTTVTVSS VL: DIQMTQSPSSLSASVGDRVTITCKSSQSLLNSRTRKNFLAWYQQKPGKAPKLLIYWASTRESGVPSRFSGSGSGTDFTLTISSLQPEDFATYYCKQSFNLFTFGQGTKLEIK | 0.0096 µg/mL | 0.0071 µg/mL
h001-15 (antibody, human IgG1, V domains shown, Variable regions only; also called h001_VH.1C + h001_VL.1B) VH: QVQLVQSGAEVKKPGASVKVSCKASGYTFNDYWMHWVRQAPGQGLEWMGYINPSSGFTKYHQNFKDRVTMTRDTSISTAYMELSRLTSDDTAVYYCARQYDYDEDWYFDVWGQGTTVTVSS VL: DIQMSQSPSSLSASVGDRVTITCKSSQSLLNSRTRKNFLAWYQQKPGKAPKLLIYWASTRESGVPDRFSGSGSGTDFTLTISSLQPEDFATYYCKQSFNLFTFGQGTKLEIK | 0.0178 µg/mL | 0.011 µg/mL
h001-12 (antibody, human IgG1, V domains shown, Variable regions only; also called h001_VH.1B + h001_VL.1C) VH: QVQLVQSGAEVKKPGASVKVSCKASGYTFTDYWMHWVRQAPGQGLEWMGYINPSSGFTKYHQNFKDRVTMTRDTSISTAYMELSRLTSDDTAVYYCARQYDYDEDWYFDVWGQGTTVTVSS VL: DIVMSQSPSSLSASVGDRVTITCKSSQSLLNSRTRKNFLAWYQQKPGKSPKLLIYWASTRESGVPDRFSGSGSGTDFTLTISSLQPEDFATYYCKQSFNLFTFGQGTKLEIK | 0.0124 µg/mL | 0.0103 µg/mL
h001-11 (antibody, human IgG1, V domains shown, Variable regions only; also called h001_VH.1B + h001_VL.1B) VH: QVQLVQSGAEVKKPGASVKVSCKASGYTFTDYWMHWVRQAPGQGLEWMGYINPSSGFTKYHQNFKDRVTMTRDTSISTAYMELSRLTSDDTAVYYCARQYDYDEDWYFDVWGQGTTVTVSS VL: DIQMSQSPSSLSASVGDRVTITCKSSQSLLNSRTRKNFLAWYQQKPGKAPKLLIYWASTRESGVPDRFSGSGSGTDFTLTISSLQPEDFATYYCKQSFNLFTFGQGTKLEIK | 0.017 µg/mL | 0.0129 µg/mL
h001-17 (antibody, human IgG1, V domains shown, Variable regions only; also called h001_VH.1D + h001_VL.1) VH: QVQLVQSGAEVKKPGASVKVSCKASGYTFNDYWMHWVRQAPGQGLEWMGYINPSSGFTKYHQNFKDRVTMTADKSISTAYMELSRLTSDDTAVYYCARQYDYDEDWYFDVWGQGTTVTVSS VL: DIQMTQSPSSLSASVGDRVTITCKSSQSLLNSRTRKNFLAWYQQKPGKAPKLLIYWASTRESGVPSRFSGSGSGTDFTLTISSLQPEDFATYYCKQSFNLFTFGQGTKLEIK | 0.0161 µg/mL | 0.0114 µg/mL

Now from value to binder:

EC50 (PCSK9-D374Y-BP15-His6) | EC50 (PCSK9-BP15-His6) | Binder
0.017 µg/mL | 0.0092 µg/mL | h001-24 (antibody, human IgG1, V domains shown, Variable regions only; also called h001_VH.1E + h001_VL.1C) VH: QVQLVQSGAEVKKPGASVKVSCKASGYTFNDYWMHWVKQAPGQGLEWIGYINPSSGFTKYHQNFKDKATLTADKSISTAYMELSRLTSDDTAVYYCARQYDYDEDWYFDVWGQGTTVTVSS VL: DIVMSQSPSSLSASVGDRVTITCKSSQSLLNSRTRKNFLAWYQQKPGKSPKLLIYWASTRESGVPDRFSGSGSGTDFTLTISSLQPEDFATYYCKQSFNLFTFGQGTKLEIK
0.0191 µg/mL | 0.0147 µg/mL | h001-18 (antibody, human IgG1, V domains shown, Variable regions only; also called h001_VH.1D + h001_VL.1A) VH: QVQLVQSGAEVKKPGASVKVSCKASGYTFNDYWMHWVRQAPGQGLEWMGYINPSSGFTKYHQNFKDRVTMTADKSISTAYMELSRLTSDDTAVYYCARQYDYDEDWYFDVWGQGTTVTVSS VL: DIQMTQSPSSLSASVGDRVTITCKSSQSLLNSRTRKNFLAWYQQKPGKAPKLLIYWASTRESGVPDRFSGSGSGTDFTLTISSLQPEDFATYYCKQSFNLFTFGQGTKLEIK
0.0111 µg/mL | 0.0123 µg/mL | h001-22 (antibody, human IgG1, V domains shown, Variable regions only; also called h001_VH.1E + h001_VL.1A) VH: QVQLVQSGAEVKKPGASVKVSCKASGYTFNDYWMHWVKQAPGQGLEWIGYINPSSGFTKYHQNFKDKATLTADKSISTAYMELSRLTSDDTAVYYCARQYDYDEDWYFDVWGQGTTVTVSS VL: DIQMTQSPSSLSASVGDRVTITCKSSQSLLNSRTRKNFLAWYQQKPGKAPKLLIYWASTRESGVPDRFSGSGSGTDFTLTISSLQPEDFATYYCKQSFNLFTFGQGTKLEIK
0.0204 µg/mL | 0.0139 µg/mL | h001-19 (antibody, human IgG1, V domains shown, Variable regions only; also called h001_VH.1D + h001_VL.1B) VH: QVQLVQSGAEVKKPGASVKVSCKASGYTFNDYWMHWVRQAPGQGLEWMGYINPSSGFTKYHQNFKDRVTMTADKSISTAYMELSRLTSDDTAVYYCARQYDYDEDWYFDVWGQGTTVTVSS VL: DIQMSQSPSSLSASVGDRVTITCKSSQSLLNSRTRKNFLAWYQQKPGKAPKLLIYWASTRESGVPDRFSGSGSGTDFTLTISSLQPEDFATYYCKQSFNLFTFGQGTKLEIK
0.0125 µg/mL | 0.0118 µg/mL | h001-23 (antibody, human IgG1, V domains shown, Variable regions only; also called h001_VH.1E + h001_VL.1B) VH: QVQLVQSGAEVKKPGASVKVSCKASGYTFNDYWMHWVKQAPGQGLEWIGYINPSSGFTKYHQNFKDKATLTADKSISTAYMELSRLTSDDTAVYYCARQYDYDEDWYFDVWGQGTTVTVSS VL: DIQMSQSPSSLSASVGDRVTITCKSSQSLLNSRTRKNFLAWYQQKPGKAPKLLIYWASTRESGVPDRFSGSGSGTDFTLTISSLQPEDFATYYCKQSFNLFTFGQGTKLEIK
0.0119 µg/mL | 0.0145 µg/mL | h001-21 (antibody, human IgG1, V domains shown, Variable regions only; also called h001_VH.1E + h001_VL.1) VH: QVQLVQSGAEVKKPGASVKVSCKASGYTFNDYWMHWVKQAPGQGLEWIGYINPSSGFTKYHQNFKDKATLTADKSISTAYMELSRLTSDDTAVYYCARQYDYDEDWYFDVWGQGTTVTVSS VL: DIQMTQSPSSLSASVGDRVTITCKSSQSLLNSRTRKNFLAWYQQKPGKAPKLLIYWASTRESGVPSRFSGSGSGTDFTLTISSLQPEDFATYYCKQSFNLFTFGQGTKLEIK
0.017 µg/mL | 0.0126 µg/mL | h001-20 (antibody, human IgG1, V domains shown, Variable regions only; also called h001_VH.1D + h001_VL.1C) VH: QVQLVQSGAEVKKPGASVKVSCKASGYTFNDYWMHWVRQAPGQGLEWMGYINPSSGFTKYHQNFKDRVTMTADKSISTAYMELSRLTSDDTAVYYCARQYDYDEDWYFDVWGQGTTVTVSS VL: DIVMSQSPSSLSASVGDRVTITCKSSQSLLNSRTRKNFLAWYQQKPGKSPKLLIYWASTRESGVPDRFSGSGSGTDFTLTISSLQPEDFATYYCKQSFNLFTFGQGTKLEIK
